Our source for the FACS fluorescence values is US20250333501A1 (University of California, published 2025).

Experiment [1] addresses T1, CLDN6 endogenously expressed by human cancer cell lines (ARK2, OVCA429) (human, UniProt P56747 1-220).
T1 construct: Untagged endogenous protein; also called Endogenous CLDN6+
T1 sequence: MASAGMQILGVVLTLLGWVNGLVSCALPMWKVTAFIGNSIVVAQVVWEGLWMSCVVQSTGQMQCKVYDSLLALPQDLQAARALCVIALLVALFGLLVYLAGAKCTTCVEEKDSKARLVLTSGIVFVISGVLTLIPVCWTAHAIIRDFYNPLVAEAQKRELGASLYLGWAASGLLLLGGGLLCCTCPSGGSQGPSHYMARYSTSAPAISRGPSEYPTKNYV
Put plainly: FACS, 1.5 µg Ab, ARK2 cells. As to the method: (§1) FACS assays were also carried out to determine relative antigen binding strengths of the humanized antibodies (at either 1.5 μg or 0.3 μg) for binding to CLDN6 as expressed by the indicated cancer cell lines. 2nd Ab only was used as a negative control.
(In general: A flow cytometer gives signals particle by particle.)

In experiment [2] the target is T2, human CLDN6 fused to GFP, expressed on engineered HEK293T cells (HEK293T-CLDN6-mGFP) (human, UniProt P56747 1-220).
T2 construct: It calls residues 1-21 a signal peptide; also called Claudin-6; HEK293T-CLDN6-mGFP Artificial CLDN6+; not shown: mGFP tag
T2 sequence: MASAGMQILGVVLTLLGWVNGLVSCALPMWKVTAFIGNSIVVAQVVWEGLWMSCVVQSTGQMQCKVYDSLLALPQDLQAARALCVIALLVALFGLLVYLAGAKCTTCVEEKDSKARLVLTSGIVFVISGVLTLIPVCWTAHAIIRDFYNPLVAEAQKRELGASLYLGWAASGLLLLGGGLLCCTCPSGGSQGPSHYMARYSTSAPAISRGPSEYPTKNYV
Put plainly: FACS, 0.3 µg Ab, 293T clone with human CLDN6. Put shortly: (§2)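 Relative antigen binding strength of humanized antibodies was taken from flow cytometry fluorescence, using 293T clones engineered to express human CLDN6. Each antibody, labelled with Alexa Fluor 647 NHS ester and used at 0.3 µg or 1.5 µg, was incubated with EDTA-detached cells for 30 min on ice in the dark before washing and reading on a BD Accuri C6 (channel FL4H).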

In experiment [3] the target is T2, human CLDN6 fused to GFP, expressed on …. Put plainly: FACS, 1.5 µg Ab, 293T clone with human CLDN6. Put shortly: as §2
The target in experiment [4] is T1, CLDN6 endogenously expressed by human …. Put plainly: FACS, 1.5 µg Ab, OVCA429 cells.
Experiment [5] deals with T3, mouse CLDN6 fused to GFP, expressed on engineered HEK293T cells (mouse, UniProt Q9Z262 1-219).
T3 construct: whole, on cells; also called HEK293T-CLDN6-mGFP Artificial CLDN6+ (mouse); murine CLDN6; not shown: GFP tag
T3 sequence (looked up): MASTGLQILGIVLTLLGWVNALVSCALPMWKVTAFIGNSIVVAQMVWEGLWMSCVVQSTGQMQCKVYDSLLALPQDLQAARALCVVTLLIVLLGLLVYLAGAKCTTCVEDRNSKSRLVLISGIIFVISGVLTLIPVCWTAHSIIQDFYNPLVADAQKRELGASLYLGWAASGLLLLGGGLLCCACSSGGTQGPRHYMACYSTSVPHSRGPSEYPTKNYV
Put plainly: FACS, 293T clone with mouse CLDN6, dose not given. As to the method:
Humanized antibodies described in Table 8 were constructed and expressed as essentially described in Example 5. FACS assays were carried out as essentially described in Example 5 to determine relative antigen binding strengths of the humanized antibodies. Two doses (1.5 μg or 0.3 μg) of the humanized antibodies were tested for binding to either human CLDN6 or murine CLDN6 which proteins were expressed by engineered 293T clones.

For experiment [6], the target named is T1, CLDN6 endogenously expressed by human …. Put plainly: FACS, 0.3 µg Ab, ARK2 cells. Here is the method:
as §1

B1: AB4-chim (antibody, V domains shown)
VH: QVQLQQSGAELARPGASVKMSCKASGYTFTSYTMHWIKQRPGQGQEWIGYINPSSTYTHYIKKFKDKATLTADKSSSTAYMQLRSLTSEDSAVYYCSRGELGGFAYWGQGTLVTVSA
VL: DVVMTQTPLSLPVSLGDQASISCRSSQSLVHSDGNTYLNWYLQKPGQSPKLLIYKVSNRFSGVPDRFSGSGSGTDFTLKIRRVEAEDLGVYFCSQSTHVPYTFGGGTKLEIK
notes: 'chim' is the pre-humanized form (parental variable regions); also called pre-humanized (chimeric) form of AB4
Regarding B1, the FACS fluorescence turned out to be 38400 in experiment [1]; 176000 in experiment [2]; 327000 in experiment [3]; 64800 in experiment [4]; 3640 in experiment [5]; 19100 in experiment [6].
